Data from patent publication US20240261333A1, “NOVEL TARGETS FOR ENHANCING ANTI-TUMOR IMMUNITY” (THE BROAD INSTITUTE, INC., priority 2021, published 2024).

Assays:
SERPINB3 (human) = SERPINB3 (human) (UniProt P29508); assay: control IP with IgG, lysate of cells with N-FLAG B3GNT2, mass spectrometry
TBL2 (human) = TBL2 (human) (UniProt Q9Y4P3); assay: as above
LCN1 (human) = LCN1 (human) (UniProt P31025); assay: as above
SYNPO (human) = SYNPO (human) (UniProt Q8N3V7); assay: as above
KCTD5 (human) = KCTD5 (human) (UniProt Q9NXV2); assay: as above
RPS26 (human) = RPS26 (human) (UniProt P62854); assay: as above
CALML5 (human) = CALML5 (human) (UniProt Q9NZT1); assay: as above
GSN (human) = GSN (human) (UniProt P06396); assay: as above
IL13RA2 (human) = IL13RA2 (human) (UniProt Q14627); assay: as above
EMILIN1 (human) = EMILIN1 (human) (UniProt Q9Y6C2); assay: as above
HNRNPM (human) = HNRNPM (human) (UniProt P52272); assay: as above
RPS27A (human) = RPS27A (human) (UniProt P62979); assay: as above
DHX9 (human) = DHX9 (human) (UniProt Q08211); assay: as above
RPL7 (human) = RPL7 (human) (UniProt P18124); assay: as above
RPL8 (human) = RPL8 (human) (UniProt P62917); assay: as above
PKM (human) = PKM (human) (UniProt P14618); assay: as above
RPL23 (human) = RPL23 (human) (UniProt P62829); assay: as above
TPM3 (human) = TPM3 (human) (UniProt P06753); assay: as above
RPL28 (human) = RPL28 (human) (UniProt P46779); assay: as above
LGALS7B (human) = LGALS7B (human) (UniProt P47929); assay: as above
GEMIN4 (human) = GEMIN4 (human) (UniProt P57678); assay: as above
IMMT (human) = IMMT (human) (UniProt Q16891); assay: as above
DDX1 (human) = DDX1 (human) (UniProt Q92499); assay: as above
CCT3 (human) = CCT3 (human) (UniProt P49368); assay: as above
CHCHD3 (human) = CHCHD3 (human) (UniProt Q9NX63); assay: as above
ATP5F1B = ATP5F1B (UniProt P06576); assay: co-IP with anti-FLAG, mass spectrometry; N-FLAG B3GNT2
S100A9 = S100A9 (UniProt P06702); assay: as above
UBA52 = UBA52 (UniProt P62987); assay: as above
S100A8 = S100A8 (UniProt P05109); assay: as above
FABP5 = FABP5 (UniProt Q01469); assay: as above
YWHAZ = YWHAZ (UniProt P63104); assay: as above
STRAP = STRAP (UniProt Q9Y3F4); assay: as above
SSR1 = SSR1 (UniProt P43307); assay: as above
TRIM21 = TRIM21 (UniProt P19474); assay: as above
PPIA = PPIA (UniProt P62937); assay: as above
SPRR2E = SPRR2E (UniProt P22531); assay: as above
AHNAK = AHNAK (UniProt Q09666); assay: as above
ACTR3 = ACTR3 (UniProt P61158); assay: as above
ENO1 = ENO1 (UniProt P06733); assay: as above
Chain of ENO1 (P06733 2-434 limits assumed): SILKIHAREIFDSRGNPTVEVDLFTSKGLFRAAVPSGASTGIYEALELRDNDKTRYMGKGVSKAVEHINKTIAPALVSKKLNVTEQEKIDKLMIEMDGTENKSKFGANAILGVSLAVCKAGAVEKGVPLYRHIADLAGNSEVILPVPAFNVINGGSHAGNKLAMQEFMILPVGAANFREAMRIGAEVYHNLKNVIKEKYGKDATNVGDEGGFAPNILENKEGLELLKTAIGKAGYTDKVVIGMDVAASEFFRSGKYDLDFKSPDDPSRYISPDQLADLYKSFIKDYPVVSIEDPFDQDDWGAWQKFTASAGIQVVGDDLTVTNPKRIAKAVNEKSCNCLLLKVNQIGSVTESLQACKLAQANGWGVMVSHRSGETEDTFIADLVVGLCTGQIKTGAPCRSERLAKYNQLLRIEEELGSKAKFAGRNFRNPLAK

Chain of PPIA (P62937 2-165 limits assumed): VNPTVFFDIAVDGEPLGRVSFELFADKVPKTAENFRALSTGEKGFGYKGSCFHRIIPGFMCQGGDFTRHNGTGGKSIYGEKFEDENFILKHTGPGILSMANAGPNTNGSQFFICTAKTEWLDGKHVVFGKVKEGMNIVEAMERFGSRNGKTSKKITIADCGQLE
Chain of CHCHD3 (human) (Q9NX63 2-227 limits assumed): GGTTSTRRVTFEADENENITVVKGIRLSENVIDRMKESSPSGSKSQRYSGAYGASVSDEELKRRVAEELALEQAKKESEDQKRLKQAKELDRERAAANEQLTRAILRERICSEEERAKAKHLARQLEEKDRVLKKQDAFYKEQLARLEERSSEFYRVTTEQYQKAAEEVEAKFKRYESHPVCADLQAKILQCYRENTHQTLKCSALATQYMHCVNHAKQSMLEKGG
Chain of IL13RA2 (human) (Q14627 27-380 limits assumed): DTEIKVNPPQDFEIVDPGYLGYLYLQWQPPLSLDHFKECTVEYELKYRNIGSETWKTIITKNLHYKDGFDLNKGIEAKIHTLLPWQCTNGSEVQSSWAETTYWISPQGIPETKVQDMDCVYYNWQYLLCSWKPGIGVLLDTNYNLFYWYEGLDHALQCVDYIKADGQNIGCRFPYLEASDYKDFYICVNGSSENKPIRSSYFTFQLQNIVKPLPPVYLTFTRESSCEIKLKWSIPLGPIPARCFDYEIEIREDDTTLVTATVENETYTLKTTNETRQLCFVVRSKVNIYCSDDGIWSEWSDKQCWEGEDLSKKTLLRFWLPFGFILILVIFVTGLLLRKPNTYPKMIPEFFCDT
Chain of CALML5 (human) (Q9NZT1 2-146 limits assumed): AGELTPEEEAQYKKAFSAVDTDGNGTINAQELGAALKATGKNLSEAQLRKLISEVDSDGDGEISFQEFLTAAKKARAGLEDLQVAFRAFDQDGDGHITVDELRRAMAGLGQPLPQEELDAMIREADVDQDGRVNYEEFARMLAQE
Chain of FABP5 (Q01469 2-135 limits assumed): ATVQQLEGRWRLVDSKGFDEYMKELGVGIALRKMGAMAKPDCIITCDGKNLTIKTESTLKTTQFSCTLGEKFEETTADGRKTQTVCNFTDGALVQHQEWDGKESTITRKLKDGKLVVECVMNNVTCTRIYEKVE
Chain of TPM3 (human) (P06753 other isoform, or with tags, fused parts or gaps limits assumed): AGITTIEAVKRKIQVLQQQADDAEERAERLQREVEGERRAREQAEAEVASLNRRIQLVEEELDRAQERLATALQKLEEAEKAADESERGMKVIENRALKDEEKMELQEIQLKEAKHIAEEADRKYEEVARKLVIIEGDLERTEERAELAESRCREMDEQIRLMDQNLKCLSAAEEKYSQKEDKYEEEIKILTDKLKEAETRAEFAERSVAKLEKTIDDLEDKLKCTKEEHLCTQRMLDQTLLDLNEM
Chain of DDX1 (human) (Q92499 whole entry): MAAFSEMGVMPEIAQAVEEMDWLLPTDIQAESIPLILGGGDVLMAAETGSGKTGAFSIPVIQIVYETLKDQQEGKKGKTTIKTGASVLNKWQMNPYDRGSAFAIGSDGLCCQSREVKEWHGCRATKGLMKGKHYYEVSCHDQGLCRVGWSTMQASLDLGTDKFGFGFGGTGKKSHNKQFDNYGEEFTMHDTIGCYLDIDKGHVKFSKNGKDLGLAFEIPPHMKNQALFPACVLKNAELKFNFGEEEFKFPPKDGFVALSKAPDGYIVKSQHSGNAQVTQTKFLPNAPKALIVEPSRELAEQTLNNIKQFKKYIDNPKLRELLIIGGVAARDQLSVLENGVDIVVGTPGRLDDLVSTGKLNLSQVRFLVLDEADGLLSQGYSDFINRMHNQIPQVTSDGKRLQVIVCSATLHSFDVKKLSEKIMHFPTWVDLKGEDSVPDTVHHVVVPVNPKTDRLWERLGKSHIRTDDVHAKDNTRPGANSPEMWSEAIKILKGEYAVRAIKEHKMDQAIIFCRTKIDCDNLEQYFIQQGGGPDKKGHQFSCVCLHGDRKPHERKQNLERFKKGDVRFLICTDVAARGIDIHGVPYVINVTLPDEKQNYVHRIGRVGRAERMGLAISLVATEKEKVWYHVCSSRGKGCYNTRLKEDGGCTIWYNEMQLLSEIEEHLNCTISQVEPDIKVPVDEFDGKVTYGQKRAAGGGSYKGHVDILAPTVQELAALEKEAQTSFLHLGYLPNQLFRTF
Chain of KCTD5 (human) (Q9NXV2 2-234 limits assumed): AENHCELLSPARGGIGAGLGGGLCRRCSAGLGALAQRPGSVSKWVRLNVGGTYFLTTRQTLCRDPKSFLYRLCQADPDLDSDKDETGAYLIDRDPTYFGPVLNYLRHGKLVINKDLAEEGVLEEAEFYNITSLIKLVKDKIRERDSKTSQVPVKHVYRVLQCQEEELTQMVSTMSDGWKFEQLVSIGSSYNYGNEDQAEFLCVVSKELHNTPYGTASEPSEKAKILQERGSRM
Chain of SERPINB3 (human) (P29508 whole entry): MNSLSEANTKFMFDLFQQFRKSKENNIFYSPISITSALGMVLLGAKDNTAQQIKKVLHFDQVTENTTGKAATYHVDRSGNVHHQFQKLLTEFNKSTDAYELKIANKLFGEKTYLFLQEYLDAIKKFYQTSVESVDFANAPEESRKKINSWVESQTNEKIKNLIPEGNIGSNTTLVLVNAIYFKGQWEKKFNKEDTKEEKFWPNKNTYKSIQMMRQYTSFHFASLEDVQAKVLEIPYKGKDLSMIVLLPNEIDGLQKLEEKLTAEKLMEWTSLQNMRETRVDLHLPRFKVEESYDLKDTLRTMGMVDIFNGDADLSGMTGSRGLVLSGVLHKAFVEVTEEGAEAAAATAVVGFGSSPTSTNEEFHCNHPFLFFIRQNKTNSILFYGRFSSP
Chain of S100A8 (P05109 whole entry): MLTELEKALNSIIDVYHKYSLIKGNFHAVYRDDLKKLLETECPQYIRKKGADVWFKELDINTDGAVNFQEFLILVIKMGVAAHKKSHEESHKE
Chain of TBL2 (human) (Q9Y4P3 whole entry): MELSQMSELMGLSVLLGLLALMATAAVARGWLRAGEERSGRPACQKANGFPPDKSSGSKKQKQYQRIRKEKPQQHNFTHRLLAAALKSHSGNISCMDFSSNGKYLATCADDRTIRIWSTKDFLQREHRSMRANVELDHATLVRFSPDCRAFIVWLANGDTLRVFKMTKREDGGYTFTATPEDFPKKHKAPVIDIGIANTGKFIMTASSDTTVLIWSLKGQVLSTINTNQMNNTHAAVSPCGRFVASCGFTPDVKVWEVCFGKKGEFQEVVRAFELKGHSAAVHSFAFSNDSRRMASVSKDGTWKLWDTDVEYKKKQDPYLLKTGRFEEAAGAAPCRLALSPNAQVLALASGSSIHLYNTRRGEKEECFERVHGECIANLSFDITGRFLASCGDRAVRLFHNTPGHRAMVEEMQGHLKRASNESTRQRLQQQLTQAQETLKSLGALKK
Chain of S100A9 (P06702 whole entry): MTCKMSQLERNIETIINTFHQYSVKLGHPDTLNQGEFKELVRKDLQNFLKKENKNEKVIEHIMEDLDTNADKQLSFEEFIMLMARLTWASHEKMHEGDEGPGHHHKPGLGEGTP
Chain of GEMIN4 (human) (P57678 whole entry): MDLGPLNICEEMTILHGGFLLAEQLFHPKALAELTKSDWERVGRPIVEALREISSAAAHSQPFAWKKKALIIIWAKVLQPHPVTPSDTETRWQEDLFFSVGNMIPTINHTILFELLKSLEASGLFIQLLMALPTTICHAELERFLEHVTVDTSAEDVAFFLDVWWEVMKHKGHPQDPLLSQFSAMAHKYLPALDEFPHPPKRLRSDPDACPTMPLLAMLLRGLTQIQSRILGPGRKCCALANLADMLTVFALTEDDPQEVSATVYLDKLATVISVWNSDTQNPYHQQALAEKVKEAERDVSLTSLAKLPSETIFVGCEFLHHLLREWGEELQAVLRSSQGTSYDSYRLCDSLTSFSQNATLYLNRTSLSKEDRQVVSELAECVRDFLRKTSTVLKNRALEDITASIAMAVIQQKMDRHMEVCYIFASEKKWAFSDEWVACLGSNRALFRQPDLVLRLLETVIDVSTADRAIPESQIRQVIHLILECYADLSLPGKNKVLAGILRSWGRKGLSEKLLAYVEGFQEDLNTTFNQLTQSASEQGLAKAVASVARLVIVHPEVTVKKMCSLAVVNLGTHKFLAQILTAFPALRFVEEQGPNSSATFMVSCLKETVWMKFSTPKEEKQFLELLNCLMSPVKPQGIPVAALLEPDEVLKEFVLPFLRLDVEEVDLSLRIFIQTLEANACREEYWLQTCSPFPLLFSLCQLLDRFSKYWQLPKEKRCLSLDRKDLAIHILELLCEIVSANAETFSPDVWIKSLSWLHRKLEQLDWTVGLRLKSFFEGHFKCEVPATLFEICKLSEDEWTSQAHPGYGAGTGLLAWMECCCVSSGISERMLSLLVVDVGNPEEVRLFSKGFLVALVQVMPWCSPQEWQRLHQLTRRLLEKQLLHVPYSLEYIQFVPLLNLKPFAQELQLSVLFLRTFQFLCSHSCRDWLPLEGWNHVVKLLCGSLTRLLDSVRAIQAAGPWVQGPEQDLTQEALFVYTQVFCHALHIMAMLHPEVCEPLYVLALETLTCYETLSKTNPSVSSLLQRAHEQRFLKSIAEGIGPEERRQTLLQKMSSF
Chain of SPRR2E (P22531 whole entry): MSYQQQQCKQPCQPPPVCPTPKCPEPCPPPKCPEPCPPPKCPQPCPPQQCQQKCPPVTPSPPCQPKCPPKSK

Substance: IgG control (Millipore Sigma 12-371) (antibody)
- co-IP mass spectrometry count (SERPINB3 (human)): 3
- co-IP mass spectrometry count (TBL2 (human)): 0
- co-IP mass spectrometry count (LCN1 (human)): 9
- co-IP mass spectrometry count (SYNPO (human)): 4
- co-IP mass spectrometry count (KCTD5 (human)): 0
- co-IP mass spectrometry count (RPS26 (human)): 4
- co-IP mass spectrometry count (CALML5 (human)): 0
- co-IP mass spectrometry count (GSN (human)): 0
- co-IP mass spectrometry count (IL13RA2 (human)): 0
- co-IP mass spectrometry count (EMILIN1 (human)): 0
- co-IP mass spectrometry count (HNRNPM (human)): 5
- co-IP mass spectrometry count (RPS27A (human)): 11
- co-IP mass spectrometry count (DHX9 (human)): 0
- co-IP mass spectrometry count (RPL7 (human)): 5
- co-IP mass spectrometry count (RPL8 (human)): 3
- co-IP mass spectrometry count (PKM (human)): 2
- co-IP mass spectrometry count (RPL23 (human)): 5
- co-IP mass spectrometry count (TPM3 (human)): 5
- co-IP mass spectrometry count (RPL28 (human)): 3
- co-IP mass spectrometry count (LGALS7B (human)): 4
- co-IP mass spectrometry count (GEMIN4 (human)): 0
- co-IP mass spectrometry count (IMMT (human)): 17
- co-IP mass spectrometry count (DDX1 (human)): 2
- co-IP mass spectrometry count (CCT3 (human)): 0
- co-IP mass spectrometry count (CHCHD3 (human)): 10

Substance: N-terminal FLAG tagged B3GNT2 (from UniProt Q9NY97 1-397) (enzyme)
- co-IP mass spectrometry count (ATP5F1B): 2
- co-IP mass spectrometry count (S100A9): 18
- co-IP mass spectrometry count (UBA52): 4
- co-IP mass spectrometry count (S100A8): 15
- co-IP mass spectrometry count (FABP5): 6
- co-IP mass spectrometry count (YWHAZ): 2
- co-IP mass spectrometry count (STRAP): 4
- co-IP mass spectrometry count (SSR1): 3
- co-IP mass spectrometry count (TRIM21): 6
- co-IP mass spectrometry count (PPIA): 6
- co-IP mass spectrometry count (SPRR2E): 16
- co-IP mass spectrometry count (AHNAK): 3
- co-IP mass spectrometry count (ACTR3): 3
- co-IP mass spectrometry count (ENO1): 5
